Assay results published in US20260356924 (published 2026).

target: iPHF (human, UniProt P10636); test: SPR
Sequence (P10636 2-758): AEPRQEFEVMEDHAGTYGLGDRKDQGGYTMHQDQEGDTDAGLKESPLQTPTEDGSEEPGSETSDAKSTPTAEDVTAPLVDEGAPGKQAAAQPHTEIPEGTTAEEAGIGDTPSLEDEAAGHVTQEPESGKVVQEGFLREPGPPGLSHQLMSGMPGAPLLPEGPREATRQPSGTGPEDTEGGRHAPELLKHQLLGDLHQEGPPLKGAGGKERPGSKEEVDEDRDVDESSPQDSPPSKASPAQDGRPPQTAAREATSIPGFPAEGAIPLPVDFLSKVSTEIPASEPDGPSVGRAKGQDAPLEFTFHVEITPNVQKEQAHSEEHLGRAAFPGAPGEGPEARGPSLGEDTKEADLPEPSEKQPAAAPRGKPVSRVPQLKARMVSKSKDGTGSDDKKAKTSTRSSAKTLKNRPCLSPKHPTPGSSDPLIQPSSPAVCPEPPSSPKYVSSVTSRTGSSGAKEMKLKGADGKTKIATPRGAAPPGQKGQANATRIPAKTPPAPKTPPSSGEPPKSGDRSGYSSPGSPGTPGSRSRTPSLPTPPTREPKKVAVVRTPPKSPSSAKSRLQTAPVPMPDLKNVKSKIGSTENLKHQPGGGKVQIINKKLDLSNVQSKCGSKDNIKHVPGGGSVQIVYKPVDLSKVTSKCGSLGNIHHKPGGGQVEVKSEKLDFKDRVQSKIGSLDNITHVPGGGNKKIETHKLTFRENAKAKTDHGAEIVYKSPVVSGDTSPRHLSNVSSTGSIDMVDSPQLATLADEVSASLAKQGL

Binder	Kd
Ab7 (antibody, V domains shown, immunopurified paired helical filament tau, hyperphosphorylated) VH: QVQLVQSGAEVKKPGASVKVSCKASGFTFTRYWMHWVRERPGHGLEWIGNINPNNGGTDFNEKFKNRVTMTVHKSISTAYMELSSLRSDDSAVYYCARGTGTGAMDYWGQGTLVTVSS VL: DVVMTQSPLSLPVTLGQPASISCRSSQSLVHNNGITYLYWYQQRPGQSPRLLIYRVSNRFSGVPDRFSGSGSGTDFTLKISRVEAEDVGVYYCFQGTHVPRTFGQGTKLEIK	33.4 pM
Ab3 (antibody, V domains shown, immunopurified paired helical filament tau, hyperphosphorylated) VH: EVQLVQSGAEVKKPGSSVKVSCKASGFTFTRYWMHWVKERPGHGLEWIGNINPNNGGTDFNEKFKNRVTMTVHKSITTAYMELSRLTSDDSAVYYCARGTGTGAMDYWGQGTLVSVSS VL: DVVMTQSPLSLPVTLGQPASISCRSSQSLVHNNGITYLYWYQQRPGQSPRLLIYRVSNRFSGVPDRFSGSGSGTDFTLKISRVEAEDVGVYYCFQGTHVPRTFGQGTKLEIK	32.5 pM
Ab2 (antibody, V domains shown, immunopurified paired helical filament tau, hyperphosphorylated) VH: QVQLVESGAEVKKPGASVKVSCKASGFTFTRYWMHWVKERPGHGLEWMGNINPNNGGTDFNEKFKNRVTITVHKSASTAYMELSSLRSEDTAVYYCARGTGTGAMDYWGQGTTVTVSS VL: DVVMTQSPLSLPVTLGQPASISCRSSQSLVHNNGITYLYWYQQRPGQSPRLLIYRVSNRFSGVPDRFSGSGSGTDFTLKISRVEAEDVGVYYCFQGTHVPRTFGQGTKLEIK	29.3 pM
Ab5 (antibody, V domains shown, immunopurified paired helical filament tau, hyperphosphorylated) VH: QVQLVQSGAEVKKPGASVKVSCKASGFTFTRYWMHWVKERPGQGLEWMGNINPNNGGTDFNEKFKNRVTMTVHKSTSTVFIQLSSLRSEDTAVYYCARGTGTGAMDYWGQGTSVTVSS VL: DIVMTQTPLSSPVTLGQPASISCRSSQSLVHNNGITYLYWYQQRPGQPPRLLIYRVSNRFSGVPDRFSGSGAGTDFTLKINRVEAEDVGVYFCFQGTHVPRTFGQGTKLEIK	24.8 pM
Ab6 (antibody, V domains shown, immunopurified paired helical filament tau, hyperphosphorylated) VH: QVQLVESGAEVKKPGASVKVSCKASGFTFTRYWMHWVKERPGHGLEWMGNINPNNGGTDFNEKFKNRVTITVHKSASTAYMELSSLRSEDTAVYYCARGTGTGAMDYWGQGTTVTVSS VL: DIVMTQSPLSLSVTPGQPASISCRSSQSLVHNNGITYLYWYLQKPGQSPQLLIYRVSNRFSGVPDRFSGSGSGTDFTLKISRVEAEDVGVYYCFQGTHVPRTFGQGTKVEIK	39.1 pM
Ab1 (antibody, V domains shown, immunopurified paired helical filament tau, hyperphosphorylated) VH: QVQLVQSGAEVKKSGASVKVSCKASGFTFTRYWMHWVRQAPGQGLEWIGNINPNNGGTDFNEKFKNRVTLIRDTSTTTVFIQLTSLTSEDSAVYYCARGTGTGAMDYWGQGTLVTVSS VL: DIVMTQSPLSLSVTPGQPASISCRSSQSLVHNNGITYLYWYLQKPGQSPQLLIYRVSNRFSGVPDRFSGSGSGTDFTLKISRVEAEDVGVYYCFQGTHVPRTFGQGTKVEIK	43.4 pM
Ab4 (antibody, V domains shown, immunopurified paired helical filament tau, hyperphosphorylated) VH: QVQLVQSGAEVKKPGASVKVSCKASGFTFTRYWMHWVKERPGQGLEWMGNINPNNGGTDFNEKFKNRVTMTVHKSTSTVFIQLSSLRSEDTAVYYCARGTGTGAMDYWGQGTSVTVSS VL: DIVMTQSPLSLSVTPGQPASISCRSSQSLVHNNGITYLYWYLQKPGQSPQLLIYRVSNRFSGVPDRFSGSGSGTDFTLKISRVEAEDVGVYYCFQGTHVPRTFGQGTKVEIK	35.3 pM
Ab8 (antibody, V domains shown, immunopurified paired helical filament tau, hyperphosphorylated) VH: QVQLVQSGAEVKKSGASVKVSCKASGFTFTRYWMHWVRQAPGQGLEWIGNINPNNGGTDFNEKFKNRVTLIRDTSTTTVFIQLTSLTSEDSAVYYCARGTGTGAMDYWGQGTLVTVSS VL: DVVMTQSPLSLPVTLGQPASISCRSSQSLVHNNGITYLYWYQQRPGQSPRLLIYRVSNRFSGVPDRFSGSGSGTDFTLKISRVEAEDVGVYYCFQGTHVPRTFGQGTKLEIK	49.6 pM
V0022 control (antibody, V domains shown, immunopurified paired helical filament tau, hyperphosphorylated) VH: QVQLQQPGTELVKPGSSVNLSCKASGFTFTRYWMHWVKERPGHGLEWIGNINPNNGGTDFNEKFKNKATLTVHKSSTTVFIQLSSLTSEDSAVYYCARGTGTGAMDYWGQGTSVTVSS VL: DVVMTQTPLSLPVSLGDQASISCRSSQSLVHNNGITYLYWYLQKPGQSPKLLIYRVSNRFSGVPDRFGGSGSGTDFTLKISRVEAEDLGVYFCFQGTHVPRTFGGGTKLEIK	16.5 pM

Continued, values first:

Kd	Binder
24.9 pM	Ab11 (antibody, V domains shown, immunopurified paired helical filament tau, hyperphosphorylated) VH: QVQLVQSGAEVKKPGASVKVSCKASGFTFTRYWMHWVKERPGQGLEWMGNINPNNGGTDFNEKFKNRVTMTVHKSTSTVFIQLSSLRSEDTAVYYCARGTGTGAMDYWGQGTSVTVSS VL: DVVMTQSPLSLPVTLGQPASISCRSSQSLVHNNGITYLYWYQQRPGQSPRLLIYRVSNRFSGVPDRFSGSGSGTDFTLKISRVEAEDVGVYYCFQGTHVPRTFGQGTKLEIK
30.4 pM	Ab10 (antibody, V domains shown, immunopurified paired helical filament tau, hyperphosphorylated) VH: EVQLVQSGAEVKKPGSSVKVSCKASGFTFTRYWMHWVKERPGHGLEWIGNINPNNGGTDFNEKFKNRVTMTVHKSITTAYMELSRLTSDDSAVYYCARGTGTGAMDYWGQGTLVSVSS VL: DIVMTQTPLSSPVTLGQPASISCRSSQSLVHNNGITYLYWYQQRPGQPPRLLIYRVSNRFSGVPDRFSGSGAGTDFTLKINRVEAEDVGVYFCFQGTHVPRTFGQGTKLEIK
44 pM	Ab9 (antibody, V domains shown, immunopurified paired helical filament tau, hyperphosphorylated) VH: EVQLVQSGAEVKKPGSSVKVSCKASGFTFTRYWMHWVKERPGHGLEWIGNINPNNGGTDFNEKFKNRVTMTVHKSITTAYMELSRLTSDDSAVYYCARGTGTGAMDYWGQGTLVSVSS VL: DIVMTQSPLSLSVTPGQPASISCRSSQSLVHNNGITYLYWYLQKPGQSPQLLIYRVSNRFSGVPDRFSGSGSGTDFTLKISRVEAEDVGVYYCFQGTHVPRTFGQGTKVEIK
16.2 pM	hV0022 control (antibody, V domains shown, immunopurified paired helical filament tau, hyperphosphorylated) VH: QVQLQQPGTELVKPGSSVNLSCKASGFTFTRYWMHWVKERPGHGLEWIGNINPNNGGTDFNEKFKNKATLTVHKSSTTVFIQLSSLTSEDSAVYYCARGTGTGAMDYWGQGTSVTVSS VL: DVVMTQTPLSLPVSLGDQASISCRSSQSLVHNNGITYLYWYLQKPGQSPKLLIYRVSNRFSGVPDRFGGSGSGTDFTLKISRVEAEDLGVYFCFQGTHVPRTFGGGTKLEIK

target: ePHF (human, UniProt P10636); test: ELISA
Sequence (P10636 2-758): as the sequence (P10636 2-758) above

Binder	EC50
Ab2 (antibody, V domains shown, enriched paired helical filament tau, hyperphosphorylated) VH: QVQLVESGAEVKKPGASVKVSCKASGFTFTRYWMHWVKERPGHGLEWMGNINPNNGGTDFNEKFKNRVTITVHKSASTAYMELSSLRSEDTAVYYCARGTGTGAMDYWGQGTTVTVSS VL: DVVMTQSPLSLPVTLGQPASISCRSSQSLVHNNGITYLYWYQQRPGQSPRLLIYRVSNRFSGVPDRFSGSGSGTDFTLKISRVEAEDVGVYYCFQGTHVPRTFGQGTKLEIK	150 pM
Ab6 (antibody, V domains shown, enriched paired helical filament tau, hyperphosphorylated) VH: QVQLVESGAEVKKPGASVKVSCKASGFTFTRYWMHWVKERPGHGLEWMGNINPNNGGTDFNEKFKNRVTITVHKSASTAYMELSSLRSEDTAVYYCARGTGTGAMDYWGQGTTVTVSS VL: DIVMTQSPLSLSVTPGQPASISCRSSQSLVHNNGITYLYWYLQKPGQSPQLLIYRVSNRFSGVPDRFSGSGSGTDFTLKISRVEAEDVGVYYCFQGTHVPRTFGQGTKVEIK	160 pM
Ab1 (antibody, V domains shown, enriched paired helical filament tau, hyperphosphorylated) VH: QVQLVQSGAEVKKSGASVKVSCKASGFTFTRYWMHWVRQAPGQGLEWIGNINPNNGGTDFNEKFKNRVTLIRDTSTTTVFIQLTSLTSEDSAVYYCARGTGTGAMDYWGQGTLVTVSS VL: DIVMTQSPLSLSVTPGQPASISCRSSQSLVHNNGITYLYWYLQKPGQSPQLLIYRVSNRFSGVPDRFSGSGSGTDFTLKISRVEAEDVGVYYCFQGTHVPRTFGQGTKVEIK	85 pM
Ab8 (antibody, V domains shown, enriched paired helical filament tau, hyperphosphorylated) VH: QVQLVQSGAEVKKSGASVKVSCKASGFTFTRYWMHWVRQAPGQGLEWIGNINPNNGGTDFNEKFKNRVTLIRDTSTTTVFIQLTSLTSEDSAVYYCARGTGTGAMDYWGQGTLVTVSS VL: DVVMTQSPLSLPVTLGQPASISCRSSQSLVHNNGITYLYWYQQRPGQSPRLLIYRVSNRFSGVPDRFSGSGSGTDFTLKISRVEAEDVGVYYCFQGTHVPRTFGQGTKLEIK	170 pM
Ab3 (antibody, V domains shown, enriched paired helical filament tau, hyperphosphorylated) VH: EVQLVQSGAEVKKPGSSVKVSCKASGFTFTRYWMHWVKERPGHGLEWIGNINPNNGGTDFNEKFKNRVTMTVHKSITTAYMELSRLTSDDSAVYYCARGTGTGAMDYWGQGTLVSVSS VL: DVVMTQSPLSLPVTLGQPASISCRSSQSLVHNNGITYLYWYQQRPGQSPRLLIYRVSNRFSGVPDRFSGSGSGTDFTLKISRVEAEDVGVYYCFQGTHVPRTFGQGTKLEIK	95 pM
Ab7 (antibody, V domains shown, enriched paired helical filament tau, hyperphosphorylated) VH: QVQLVQSGAEVKKPGASVKVSCKASGFTFTRYWMHWVRERPGHGLEWIGNINPNNGGTDFNEKFKNRVTMTVHKSISTAYMELSSLRSDDSAVYYCARGTGTGAMDYWGQGTLVTVSS VL: DVVMTQSPLSLPVTLGQPASISCRSSQSLVHNNGITYLYWYQQRPGQSPRLLIYRVSNRFSGVPDRFSGSGSGTDFTLKISRVEAEDVGVYYCFQGTHVPRTFGQGTKLEIK	130 pM

Now from value to binder:

EC50	Binder
160 pM	Ab11 (antibody, V domains shown, enriched paired helical filament tau, hyperphosphorylated) VH: QVQLVQSGAEVKKPGASVKVSCKASGFTFTRYWMHWVKERPGQGLEWMGNINPNNGGTDFNEKFKNRVTMTVHKSTSTVFIQLSSLRSEDTAVYYCARGTGTGAMDYWGQGTSVTVSS VL: DVVMTQSPLSLPVTLGQPASISCRSSQSLVHNNGITYLYWYQQRPGQSPRLLIYRVSNRFSGVPDRFSGSGSGTDFTLKISRVEAEDVGVYYCFQGTHVPRTFGQGTKLEIK
140 pM	Ab10 (antibody, V domains shown, enriched paired helical filament tau, hyperphosphorylated) VH: EVQLVQSGAEVKKPGSSVKVSCKASGFTFTRYWMHWVKERPGHGLEWIGNINPNNGGTDFNEKFKNRVTMTVHKSITTAYMELSRLTSDDSAVYYCARGTGTGAMDYWGQGTLVSVSS VL: DIVMTQTPLSSPVTLGQPASISCRSSQSLVHNNGITYLYWYQQRPGQPPRLLIYRVSNRFSGVPDRFSGSGAGTDFTLKINRVEAEDVGVYFCFQGTHVPRTFGQGTKLEIK
100 pM	Ab9 (antibody, V domains shown, enriched paired helical filament tau, hyperphosphorylated) VH: EVQLVQSGAEVKKPGSSVKVSCKASGFTFTRYWMHWVKERPGHGLEWIGNINPNNGGTDFNEKFKNRVTMTVHKSITTAYMELSRLTSDDSAVYYCARGTGTGAMDYWGQGTLVSVSS VL: DIVMTQSPLSLSVTPGQPASISCRSSQSLVHNNGITYLYWYLQKPGQSPQLLIYRVSNRFSGVPDRFSGSGSGTDFTLKISRVEAEDVGVYYCFQGTHVPRTFGQGTKVEIK
